This note sets out measurements from PMC5241209, “Identification and functional analysis of c.422_423InsT, a novel mutation of the HNF1A gene in a patient with diabetes”.

This data set addresses HNF1A (rHNF1A) (UniProt P20823 1-631). Nature of the data set: EMSA; two complexes, complex 1 more abundant; abolished by 300x unlabeled probe; 12 mM Hepes pH 7.9, 60 mM KCl, 10% glycerol, 1 mM EDTA, 1 mM MgCl2, 1 mM DTT plus DNA mix (1 mM spermidine, 1 mM MgCl2), 1 ug poly(dG/dC)·poly(dG-dC), 4 C; probe 1.29 nM (0.52 nM in mutant titration); 6% PAGE, 0.5x TBE. The note with it: protein: ivt; chain copies: 2; label: 32P 5' end (T4 PNK).

Chain of HNF1A (rHNF1A) (P20823 whole entry): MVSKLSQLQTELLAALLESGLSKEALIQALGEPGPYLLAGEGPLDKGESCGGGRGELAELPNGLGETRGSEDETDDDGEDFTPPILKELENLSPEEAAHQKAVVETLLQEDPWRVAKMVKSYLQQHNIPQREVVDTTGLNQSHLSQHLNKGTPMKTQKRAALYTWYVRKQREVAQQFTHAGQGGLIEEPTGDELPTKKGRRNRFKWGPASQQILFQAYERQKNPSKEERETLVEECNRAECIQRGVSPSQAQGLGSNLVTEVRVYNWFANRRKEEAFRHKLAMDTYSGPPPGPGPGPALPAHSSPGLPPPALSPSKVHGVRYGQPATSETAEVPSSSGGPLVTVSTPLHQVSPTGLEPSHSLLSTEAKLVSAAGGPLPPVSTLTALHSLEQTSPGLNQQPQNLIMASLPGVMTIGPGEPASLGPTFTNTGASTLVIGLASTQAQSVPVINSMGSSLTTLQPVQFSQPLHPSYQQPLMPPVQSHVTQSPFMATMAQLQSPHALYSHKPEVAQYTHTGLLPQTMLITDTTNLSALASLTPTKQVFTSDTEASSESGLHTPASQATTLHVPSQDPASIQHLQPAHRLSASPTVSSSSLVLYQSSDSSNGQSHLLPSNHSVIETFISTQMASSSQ

B1: GLUT2 promoter HNF1A site (dsDNA)
DNA 1: CTCAGTAAAGATTAACCAT
DNA 2: ATGGTTAATCTTTACTGAG
Take B1: the binding result is given as “binds”.
